Experimental data from patent US7387779B2, “Anti-angiogenic proteins and fragments and methods of use thereof” (Beth Israel Deaconess Medical Center, priority 1998, dated 2008).

System: new blood vessels in Matrigel plugs
Assay: In vivo Matrigel plug assay
Parameters: species or system C57/BL6 mice
Details: for inhibition of neovascularization / average number of vessels per high power field: Tumstatin-N53 5 μg/ml, T1 and T3 peptide 10 μg/ml; for average number of vessels per high power field: control 8.81±0.35; for reduction of new blood vessels: 6 days, 5 μg/ml, relative to PBS control; for reduction in the number of blood vessels / number of blood vessels per plug: 14 days; for number of blood vessels per plug: 2 or 20 μg/ml insoluble protein, 50 ng/ml VEGF, vs PBS
Experimental: The matrigel assay was also conducted in vivo in C57/BL6 mice. Matrigel was thawed overnight at 4° C. It was then mixed with 20 U/ml of heparin (Pierce Chemical Co., Rockford, Ill., USA), 150 ng/ml of bFGF (R&D Systems, Minneapolis, Minn., USA), and either 1 μg/ml of Arresten or 10 μg/ml of endostatin. The matrigel mixture was injected subcutaneously using a 21 g needle. Control groups received the same mixture, but with no angiogenic inhibitor. After 14 days, mice were sacrificed and the matrigel plugs removed. The matrigel plugs were fixed in 4% paraformaldehyde in PBS for 4 hours at room temperature, then switched to PBS for 24 hours. The plugs were embedded in paraffin, sectioned, and H&E stained. Sections were examined by light microscopy and the number of blood vessels from 10 high-power fields were counted and averaged.
To evaluate the in vivo effect of Tumstatin on the formation of new capillaries, a Matrigel plug assay was performed (Passaniti, A. et al., 1992, Lab. Invest. 67:519-29). Five- to six-week-old male C57/BL6 mice (Jackson Laboratories, Bar Harbor, Me., USA) were obtained. Matrigel (Collaborative Biomedical Prods.) was thawed overnight at 4° C. Before injection into C57/BL6 mice, it was mixed with 20 U/ml of heparin (Pierce Chemical Co., Rockford, Ill., USA), 150 ng/ml of bFGF (R&D Sys., Minneapolis, Minn., USA), and […] of Tumstatin. Control groups received no angiogenic inhibitor. The Matrigel mixture was injected sub-cutaneously using a 21 gauge needle. After 14 days, mice were sacrificed and the Matrigel plugs were removed. Matrigel plugs were fixed in 4% para-formaldehyde (in PBS) for 4 hours at room temperature, then switched to PBS for 24 hours. The plugs were embedded in paraffin, sectioned, and H & E stained. Sections were examined by light microscopy and the number of blood vessels from 10 high power fields were counted and averaged. All sections were coded and observed by a pathologist who was unaware of the study protocols.
Anti-angiogenic activity was measured by the in vivo Matrigel plug assay, in which 0.5 ml of Matrigel containing either 2 μg/ml or 20 μg/ml insoluble protein, 50 ng/ml VEGF, and 20 U/ml heparin was injected simultaneously into both flanks of C57/1BL6 mice. The plugs remained in the mice for 14 days, when the mice were sacrificed and the plugs resected and fixed. The plugs were embedded, sectioned and H&E stained. Samples were blinded and the blood vessels quantitated. No difference in the number of blood vessels was found between the two concentrations of protein, so all six counts were averaged and plotted.
To evaluate the in vivo effect of Tumstatin-44-131 of the formation of new capillaries, a Matrigel plug assay was performed. After 6 days of treatment, the number of new blood formed was reduced 91% upon treatment with 5 μg/ml E. Coli-expressed Tumstatin-44-131, relative to the PBS-treated control. Tum-1, which lacks the N-terminal 53 amino acids of full-length Tumstatin, was also tested, and reduced neovascularization by 95%. The average (over 3-4 Matrigel plugs) number of vessels was 0.47.+−.0.16 for Tum-1-treated plugs, 0.80.+−.0.16 for Tumstatin-44-131-treated plugs, and 8.81.+−.0.35 for PBS-treated controls.
To evaluate the in vivo effect of T3 on the formation of new capillaries, a matrigel plug assay was performed with Tumstatin-N53 (5 μg/ml), T1 and T3 peptide (10 μg/ml). The number of blood vessels from 4-7 high power fields were counted and averaged. The average number of vessels per high power field after treatment with Tumstatin-N53 was 0.47±0.16, 7.41±0.54 for T1 peptide, and 0.33±0.16 for T3 peptide. Control treatment produced 8.81±0.35 vessels per field, on average.

Molecule: GLKGKRGDSGSPATWTTRGF [T1]
- inhibition of neovascularization: no significant reduction
- average number of vessels per high power field: 7.41±0.54

Molecule: LQRFTTMPFLFCNVNDVCNF [T3]
- inhibition of neovascularization: 96%
- average number of vessels per high power field: 0.33±0.16

B1: Tumstatin-44-131: residues 44 to 131 of full-length Tumstatin (SEQ ID NO:33) (protein)
chain: FSFLFVQGNQRAHGQDLGTLGSCLQRFTTMPFLFCNVNDVCNFASRNDYSYWLSTPALMPMNMAPITGRALEPYISRCTVCEGPAIAI
modifications: Tumstatin-45-132 (amino acids 45-132 of SEQ ID NO10)
- reduction of new blood vessels: 91%

B2: endostatin: tumor associated angiogenesis inhibitor used as comparator (protein, UniProt P39060 1572-1754, looked up)
Endostatin: HSHRDFQPVLHLVALNSPLSGGMRGIRGADFQCFQQARAVGLAGTFRAFLSSRLQDLYSIVRRADRAAVPIVNLKDELLFPSWEALFSGSEGPLKPGARIFSFDGKDVLRHPTWPQKSVWHGSDPNGRRLTESYCETWRTEAPSATGQASSLLGGRLLGQSAASCHHAYIVLCIENSFMTASK
modifications: Endostatin
- reduction in the number of blood vessels (bFGF, 1 μg/ml Arresten, 10 μg/ml endostatin): 50%

B3: Can-1: N-terminal 114 amino acids of full-length Canstatin (protein, listed as Homo sapiens)
chain: VSIGYLLVKHSQTDQEPMCPVGMNKLWSGYSLLYFEGQEKAHNQDLGLAGSCLARFSTMPFLYCNPGDVCYYASRNDKSYWLSTTAPLPMMPVAEDEIKPYISRCSVCEAPAIA
- number of blood vessels per plug: significantly fewer blood vessels

B4: Tum-1: residues 54 to 244 of Tumstatin, lacking the N-terminal 53 amino acids (SEQ ID NO:22) (protein)
chain: QRAHGQDLGTLGSCLQRFTTMPFLFCNVNDVCNFASRNDYSYWLSTPALMPMNMAPITGRALEPYISRCTVCEGPAIAIAVHSQTTDIPPCPHGWISLWKGFSFIMFTSAGSEGTGQALASPGSCLEEFRASPFLECHGRGTCNYYSNSYSFWLASLNPERMFRKPIPSTVKAGELEKIISRCQVCMKKRH
modifications: Tum-1 (Tumstatin N-53) (amino acids 54-244 of SEQ ID NO10)
- reduction of new blood vessels: 95%
- inhibition of neovascularization: 95%
- average number of vessels per high power field: 0.47±0.16

B5: Tumstatin: NC1 domain of the α3 chain of type IV collagen, residues 1-244 (SEQ ID NO:10) (protein, listed as Homo sapiens)
chain: GLKGKRGDSGSPATWTTRGFVFTRHSQTTAIPSCPEGTVPLYSGFSFLFVQGNQRAHGQDLGTLGSCLQRFTTMPFLFCNVNDVCNFASRNDYSYWLSTPALMPMNMAPITGRALEPYISRCTVCEGPAIAIAVHSQTTDIPPCPHGWISLWKGFSFIMFTSAGSEGTGQALASPGSCLEEFRASPFLECHGRGTCNYYSNSYSFWLASLNPERMFRKPIPSTVKAGELEKIISRCQVCMKKRH
- number of vessels per high power field (1 mg/ml Tumstatin, control 7.50±2.17): 2.25±1.32
- reduction in the number of blood vessels (bFGF and heparin, 1 mg/ml E. Coli-produced Tumstatin): 67%

B6: Canstatin: NC1 domain of the α2 chain of Type IV collagen (SEQ ID NO:6) (protein, listed as Homo sapiens)
chain: VSIGYLLVKHSQTDQEPMCPVGMNKLWSGYSLLYFEGQEKAHNQDLGLAGSCLARFSTMPFLYCNPGDVCYYASRNDKSYWLSTTAPLPMMPVAEDEIKPYISRCSVCEAPAIAIAVHSQDVSIPHCPAGWRSLWIGYSFLMHTAAGDEGGGQSLVSPGSCLEDFRATPFIECNGGRGTCHYYANKYSFWLTTIPEQSFQGSPSADTLKAGLIRTHISRCQVCMKNL
- number of blood vessels per plug: significantly fewer blood vessels
